# Test results taken from patent publication US20260000742.
# B1: Htra3 tagged with FLAG at the C-terminus (Htra3-flag protein) (protein)
# chain: REPPAAPCPARCDVSRCPSPRCPGGYVPDLCNCCLVCAASEGEPCGRPLDSPCGDSLECVRGVCRCRWTHTVCGTDGHTYADVCALQAASRRALQVSGTPVRQLQKGACPSGLHQLTSPRYKFNFIADVVEKIAPAVVHIELFLRHPLFGRNVPLSSGSGFIMSEAGLIVTNAHVVSSSSTASGRQQLKVQLQNGDAYEATIQDIDKKSDIATIVIHPKKKLPVLLLGHSADLRPGEFVVAIGSPFALQNTVTTGIVSTAQRDGKELGLRDSDMDYIQTDAIINYGNSGGPLVNLDGEVIGINTLKVAAGISFAIPSDRITRFLSEFQNKHVKDWKKRFIGIRMRTITPSLVEELKAANPDFPAVSSGIYVQEVVPNSPSQRGGIQDGDIIVKVNGRPLADSSELQEAVLNESSLLLEVRRGNDDLLFSIIPEVVM
# Target: mature TGF-β1, P04202
# Sequence (P04202 279-390): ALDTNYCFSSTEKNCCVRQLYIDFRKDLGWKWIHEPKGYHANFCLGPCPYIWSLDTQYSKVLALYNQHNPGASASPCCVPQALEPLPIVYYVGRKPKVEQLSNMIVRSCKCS
protein,measurement,value
B1,protein levels of TGF-β1 and phosphorylated Smad2/3 in primary cardiac fibroblasts (western blot),"overexpression of Htra3 reduced the protein levels of both TGF-β1 and phosphorylated Smad2/3 (phospho-Smad2/3), a marker of activated TGF-β signaling"
